# In the Human Domainome abundance scans (Beltran et al. 2025):
# ± gives the uncertainty stated by the source.
# B1: Membrane-associated guanylate kinase, WW and PDZ domain-containing protein 3, residues 287 to 329; numbered along this chain, Q5TCQ9 (parent)
# chain: MRDETLEPLPKNWEMAYTDTGMIYFIDHNTKTTTWLDPRLCKK
# Variants of: B1
# Experiment: abundance fitness (aPCA) (normalised: wild type 0, dead -1); higher = more abundant; growth selection in yeast, the domain comes from the species named
# Conditions: Homo sapiens
row,Variant,abundance fitness
1,K11Q,-0.041 ± 0.044
2,K11R,-0.049 ± 0.03
3,K11S,-0.068 ± 0.034
4,K11T,-0.068 ± 0.043
5,K11V,-0.109 ± 0.037
6,N12A,-0.191 ± 0.034
7,N12C,-0.257 ± 0.14
8,N12D,-0.081 ± 0.039
9,N12E,-0.22 ± 0.049
10,N12F,-0.198 ± 0.049
11,N12G,0.018 ± 0.032
12,N12H,-0.185 ± 0.08
13,N12I,-0.96 ± 0.11
14,N12K,-0.155 ± 0.044
15,N12L,-0.247 ± 0.035
16,N12M,-0.229 ± 0.06
17,N12P,-0.383 ± 0.054
18,N12Q,-0.237 ± 0.046
19,N12R,-0.215 ± 0.033
20,N12S,-0.213 ± 0.038
21,N12T,-0.438 ± 0.073
22,N12V,-0.89 ± 0.071
23,N12W,-0.412 ± 0.045
24,W13A,-0.668 ± 0.036

row,Variant,abundance fitness
1,W13C,-0.636 ± 0.063
2,W13D,-0.773 ± 0.096
3,W13E,-0.683 ± 0.045
4,W13F,-0.221 ± 0.17
5,W13G,-0.696 ± 0.033
6,W13I,-0.431 ± 0.059
7,W13K,-0.67 ± 0.064
8,W13L,-0.635 ± 0.046
9,W13M,-0.398 ± 0.041
10,W13P,-0.715 ± 0.073
11,W13Q,-0.729 ± 0.068
12,W13R,-0.634 ± 0.04
13,W13S,-0.698 ± 0.096
14,W13T,-0.475 ± 0.042
15,W13V,-0.303 ± 0.03
16,E14A,-0.132 ± 0.042
17,E14F,-1.06 ± 0.27
18,E14G,-0.224 ± 0.029
19,E14H,-0.429 ± 0.066
20,E14I,-0.39 ± 0.066
21,E14K,-0.262 ± 0.036
22,E14L,-0.456 ± 0.095
23,E14M,-0.346 ± 0.042
24,E14N,-0.372 ± 0.065

row,Variant,abundance fitness
1,E14P,-0.868 ± 0.064
2,E14Q,-0.087 ± 0.051
3,E14R,-0.273 ± 0.035
4,E14S,-0.12 ± 0.033
5,E14V,-0.346 ± 0.043
6,E14W,-0.834 ± 0.056
7,E14Y,-0.368 ± 0.12
8,M15A,-0.043 ± 0.038
9,M15C,-0.097 ± 0.053
10,M15D,-0.379 ± 0.041
11,M15E,-0.062 ± 0.051
12,M15F,-0.189 ± 0.036
13,M15G,-0.334 ± 0.034
14,M15H,-0.156 ± 0.062
15,M15I,0.036 ± 0.24
16,M15K,-0.037 ± 0.05
17,M15L,-0.066 ± 0.035
18,M15P,-0.11 ± 0.079
19,M15Q,-0.007 ± 0.035
20,M15R,-0.013 ± 0.034
21,M15S,-0.047 ± 0.042
22,M15T,-0.039 ± 0.051
23,M15V,-0.093 ± 0.035
24,M15W,-0.283 ± 0.053

row,Variant,abundance fitness
1,M15Y,-0.186 ± 0.051
2,A16D,-0.257 ± 0.042
3,A16E,-0.278 ± 0.04
4,A16G,-0.149 ± 0.031
5,A16H,-0.514 ± 0.092
6,A16K,-0.067 ± 0.055
7,A16L,-0.297 ± 0.04
8,A16M,-0.36 ± 0.058
9,A16N,-0.318 ± 0.086
10,A16P,-0.914 ± 0.063
11,A16Q,-0.15 ± 0.039
12,A16R,-0.076 ± 0.032
13,A16V,-0.193 ± 0.042
14,Y17A,0.026 ± 0.047
15,Y17C,-0.052 ± 0.041
16,Y17D,-0.323 ± 0.058
17,Y17E,0.031 ± 0.037
18,Y17F,-0.043 ± 0.066
19,Y17G,-0.199 ± 0.033
20,Y17H,-0.121 ± 0.1
21,Y17K,-0.03 ± 0.056
22,Y17L,-0.034 ± 0.04
23,Y17N,-0.194 ± 0.068
24,Y17P,-0.376 ± 0.039

row,Variant,abundance fitness
1,Y17Q,-0.025 ± 0.071
2,Y17R,0.054 ± 0.029
3,Y17S,-0.024 ± 0.043
4,Y17V,0 ± 0.034
5,Y17W,-0.043 ± 0.037
6,T18A,-0.151 ± 0.035
7,T18C,-0.223 ± 0.097
8,T18E,-0.389 ± 0.038
9,T18G,-0.244 ± 0.029
10,T18K,-0.539 ± 0.23
11,T18L,-0.471 ± 0.063
12,T18M,-0.335 ± 0.044
13,T18N,-0.391 ± 0.46
14,T18P,-1.03 ± 0.13
15,T18Q,-0.624 ± 0.13
16,T18R,-0.7 ± 0.035
17,T18S,-0.128 ± 0.044
18,T18W,-0.676 ± 0.054
19,D19A,-0.047 ± 0.033
20,D19C,-0.122 ± 0.054
21,D19E,-0.001 ± 0.039
22,D19I,-0.536 ± 0.15
23,D19K,-0.034 ± 0.053
24,D19P,-0.07 ± 0.052

row,Variant,abundance fitness
1,D19Q,-0.055 ± 0.079
2,D19R,-0.091 ± 0.045
3,D19S,-0.019 ± 0.035
4,D19T,-0.067 ± 0.044
5,D19Y,-0.173 ± 0.22
6,T20C,-0.077 ± 0.04
7,T20D,-0.054 ± 0.07
8,T20E,0.017 ± 0.037
9,T20G,-0.025 ± 0.028
10,T20H,-0.345 ± 0.22
11,T20I,-0.24 ± 0.053
12,T20M,-0.153 ± 0.042
13,T20N,-0.132 ± 0.27
14,T20P,-0.48 ± 0.05
15,T20S,-0.023 ± 0.053
16,T20W,-0.328 ± 0.054
17,T20Y,-0.256 ± 0.067
18,G21A,-0.312 ± 0.036
19,G21D,-0.241 ± 0.091
20,G21E,-0.215 ± 0.039
21,G21K,-0.172 ± 0.066
22,G21L,-0.67 ± 0.036
23,G21M,-0.46 ± 0.067
24,G21P,-0.682 ± 0.081

row,Variant,abundance fitness
1,G21Q,-0.222 ± 0.059
2,G21R,-0.237 ± 0.033
3,G21S,-0.487 ± 0.066
4,G21T,-0.689 ± 0.061
5,G21V,-1.18 ± 0.077
6,G21W,-0.782 ± 0.068
7,M22A,0.081 ± 0.029
8,M22C,-0.028 ± 0.11
9,M22D,0.084 ± 0.054
10,M22E,0.144 ± 0.044
11,M22G,0.006 ± 0.031
12,M22H,-0.137 ± 0.06
13,M22K,0.075 ± 0.07
14,M22L,-0.043 ± 0.04
15,M22P,-0.62 ± 0.062
16,M22Q,0.096 ± 0.071
17,M22R,-0.043 ± 0.033
18,M22S,0.199 ± 0.13
19,M22T,-0.005 ± 0.049
20,M22V,-0.025 ± 0.041
21,M22Y,0.004 ± 0.14
22,I23A,0.053 ± 0.032
23,I23C,0.002 ± 0.034
